14 molecules from patent publication US20240059799A1 (Pfizer, published 2024) can be followed below.

Sequences and labels used below:
B1: TL1A-0061 (antibody, IgG1, V domains shown)
VH: QVQLVQSGAEVKKPGASVKVSCKASGFDFTYYGISWVRQAPGQGLEWMGWISTYNGNTHYARMLQGRVTMTTDTSTRTAYMELRSLRSDDTAVYYCARENYYGSGAYRGGMDVWGQGTTVTVSS
VL: EIVLTQSPATLSLSPGERATLSCRASQSVSSYLAWYQQKPGQAPRLLIYDASNRATGIPARFSGSGSGTDFTLTISSLEPEDFAVYYCQQRSNWPWTFGQGTKVEIKR
notes: IgG1/kappa variant of TL1A-0002
B2: TL1A-0067 (antibody, IgG1, V domains shown)
VH: QVQLVQSGAEVKKPGASVKVSCKASGYDFTFYGISWVRQAPGQGLEWMGWISTYNGNTHYARMLQGRVTMTTDTSTRTAYMELRSLRSDDTAVYYCARENYYGSGAYRGGMDVWGQGTTVTVSS
VL: EIVLTQSPATLSLSPGERATLSCRASQSVSSYLAWYQQKPGQAPRLLIYDASNRATGIPARFSGSGSGTDFTLTISSLEPEDFAVYYCQQRSNWPWTFGQGTKVEIKR
notes: as for B1
B3: TL1A-0079 (antibody, IgG1, V domains shown)
VH: QVQLVQSGAEVKKPGASVKVSCKASGYDFTYYGISWVRQAPGQGLEWMGWISTYQGNTHYARMLQGRVTMTTDTSTRTAYMELRSLRSDDTAVYYCARENYYGSGAYRGGMDVWGQGTTVTVSS
VL: EIVLTQSPATLSLSPGERATLSCRASQSVSSYLAWYQQKPGQAPRLLIYDASNRATGIPARFSGSGSGTDFTLTISSLEPEDFAVYYCQQRSNWPWTFGQGTKVEIKR
notes: as for B1
B4: TL1A-0080 (antibody, IgG1, V domains shown)
VH: QVQLVQSGAEVKKPGASVKVSCKASGYDFTYYGISWVRQAPGQGLEWMGWISTYGGNTHYARMLQGRVTMTTDTSTRTAYMELRSLRSDDTAVYYCARENYYGSGAYRGGMDVWGQGTTVTVSS
VL: EIVLTQSPATLSLSPGERATLSCRASQSVSSYLAWYQQKPGQAPRLLIYDASNRATGIPARFSGSGSGTDFTLTISSLEPEDFAVYYCQQRSNWPWTFGQGTKVEIKR
notes: as for B1
B5: TL1A-0076 (antibody, IgG1, V domains shown)
VH: QVQLVQSGAEVKKPGASVKVSCKASGYDFTYYGISWVRQAPGQGLEWMGWISTYNDNTHYAPSLQGRVTMTTDTSTRTAYMELRSLRSDDTAVYYCARENYYGSGAYRGGMDVWGQGTTVTVSS
VL: EIVLTQSPATLSLSPGERATLSCRASQSVSSYLAWYQQKPGQAPRLLIYDASNRATGIPARFSGSGSGTDFTLTISSLEPEDFAVYYCQQRSNWPWTFGQGTKVEIKR
notes: as for B1
B6: TL1A-0074 (antibody, IgG1, V domains shown)
VH: QVQLVQSGAEVKKPGASVKVSCKASGYDFTYYGISWVRQAPGQGLEWMGWISTYNTNTHYAPSLQGRVTMTTDTSTRTAYMELRSLRSDDTAVYYCARENYYGSGAYRGGMDVWGQGTTVTVSS
VL: EIVLTQSPATLSLSPGERATLSCRASQSVSSYLAWYQQKPGQAPRLLIYDASNRATGIPARFSGSGSGTDFTLTISSLEPEDFAVYYCQQRSNWPWTFGQGTKVEIKR
notes: as for B1
B7: TL1A-0071 (antibody, IgG1, V domains shown)
VH: QVQLVQSGAEVKKPGASVKVSCKASGYDFTYYGVSWVRQAPGQGLEWMGWISTYNGNTHYARMLQGRVTMTTDTSTRTAYMELRSLRSDDTAVYYCARENYYGSGAYRGGMDVWGQGTTVTVSS
VL: EIVLTQSPATLSLSPGERATLSCRASQSVSSYLAWYQQKPGQAPRLLIYDASNRATGIPARFSGSGSGTDFTLTISSLEPEDFAVYYCQQRSNWPWTFGQGTKVEIKR
notes: as for B1
B8: TL1A-0082 (antibody, IgG1, V domains shown)
VH: QVQLVQSGAEVKKPGASVKVSCKASGYDFTYYGISWVRQAPGQGLEWMGWISAYNGNTHYAQKLQGRVTMTTDTSTRTAYMELRSLRSDDTAVYYCARENYYGSGAYRGGMDVWGQGTTVTVSS
VL: EIVLTQSPATLSLSPGERATLSCRASQSVSSYLAWYQQKPGQAPRLLIYDASNRATGIPARFSGSGSGTDFTLTISSLEPEDFAVYYCQQRSNWPWTFGQGTKVEIKR
notes: as for B1
B9: TL1A-0068 (antibody, IgG1, V domains shown)
VH: QVQLVQSGAEVKKPGASVKVSCKASGYDFTKYGISWVRQAPGQGLEWMGWISTYNGNTHYARMLQGRVTMTTDTSTRTAYMELRSLRSDDTAVYYCARENYYGSGAYRGGMDVWGQGTTVTVSS
VL: EIVLTQSPATLSLSPGERATLSCRASQSVSSYLAWYQQKPGQAPRLLIYDASNRATGIPARFSGSGSGTDFTLTISSLEPEDFAVYYCQQRSNWPWTFGQGTKVEIKR
notes: as for B1
B10: TL1A-0073 (antibody, IgG1, V domains shown)
VH: QVQLVQSGAEVKKPGASVKVSCKASGYDFTYYGISWVRQAPGQGLEWMGWISTYNTNTHYAQKLQGRVTMTTDTSTRTAYMELRSLRSDDTAVYYCARENYYGSGAYRGGMDVWGQGTTVTVSS
VL: EIVLTQSPATLSLSPGERATLSCRASQSVSSYLAWYQQKPGQAPRLLIYDASNRATGIPARFSGSGSGTDFTLTISSLEPEDFAVYYCQQRSNWPWTFGQGTKVEIKR
notes: as for B1
B11: TL1A-0063 (antibody, IgG1, V domains shown)
VH: QVQLVQSGAEVKKPGASVKVSCKASGYDFSYYGISWVRQAPGQGLEWMGWISTYNGNTHYARMLQGRVTMTTDTSTRTAYMELRSLRSDDTAVYYCARENYYGSGAYRGGMDVWGQGTTVTVSS
VL: EIVLTQSPATLSLSPGERATLSCRASQSVSSYLAWYQQKPGQAPRLLIYDASNRATGIPARFSGSGSGTDFTLTISSLEPEDFAVYYCQQRSNWPWTFGQGTKVEIKR
notes: as for B1
B12: TL1A-0081 (antibody, IgG1, V domains shown)
VH: QVQLVQSGAEVKKPGASVKVSCKASGYDFTYYGISWVRQAPGQGLEWMGWISAYNGNTHYARMLQGRVTMTTDTSTRTAYMELRSLRSDDTAVYYCARENYYGSGAYRGGMDVWGQGTTVTVSS
VL: EIVLTQSPATLSLSPGERATLSCRASQSVSSYLAWYQQKPGQAPRLLIYDASNRATGIPARFSGSGSGTDFTLTISSLEPEDFAVYYCQQRSNWPWTFGQGTKVEIKR
notes: as for B1
B13: TL1A-0069 (antibody, IgG1, V domains shown)
VH: QVQLVQSGAEVKKPGASVKVSCKASGYDFTYHGISWVRQAPGQGLEWMGWISTYNGNTHYARMLQGRVTMTTDTSTRTAYMELRSLRSDDTAVYYCARENYYGSGAYRGGMDVWGQGTTVTVSS
VL: EIVLTQSPATLSLSPGERATLSCRASQSVSSYLAWYQQKPGQAPRLLIYDASNRATGIPARFSGSGSGTDFTLTISSLEPEDFAVYYCQQRSNWPWTFGQGTKVEIKR
notes: as for B1
B14: TL1A-0062 (antibody, IgG1, V domains shown)
VH: QVQLVQSGAEVKKPGASVKVSCKASGYDYTYYGISWVRQAPGQGLEWMGWISTYNGNTHYARMLQGRVTMTTDTSTRTAYMELRSLRSDDTAVYYCARENYYGSGAYRGGMDVWGQGTTVTVSS
VL: EIVLTQSPATLSLSPGERATLSCRASQSVSSYLAWYQQKPGQAPRLLIYDASNRATGIPARFSGSGSGTDFTLTISSLEPEDFAVYYCQQRSNWPWTFGQGTKVEIKR
notes: as for B1

In this assay the target is T1, recombinant human TL1A (human, UniProt O95150 71-251).
T1 construct: homotrimer; biotinylated for SPR capture; the ELISA paragraphs say only 'recombinant TL1A'; also called TNFSF15
T1 chain: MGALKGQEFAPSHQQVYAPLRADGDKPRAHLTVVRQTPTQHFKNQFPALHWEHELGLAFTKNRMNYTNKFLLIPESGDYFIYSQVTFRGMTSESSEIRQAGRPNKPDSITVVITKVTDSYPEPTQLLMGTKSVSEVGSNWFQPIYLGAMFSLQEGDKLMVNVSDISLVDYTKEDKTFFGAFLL
The assay is described as follows: competition ELISA vs bio-TL1A-0002. The method, then:
For this competition ELISA assay procedure, 96-well high binding plates (Corning, product number 3590) were coated with 1 μg/mL recombinant TL1A in 100 μL/well in Phospate Buffered Saline (PBS) overnight at 4° C. Plates were then blocked in PBS+0.02% casein solution and washed with PBS+0.05% Tween-20 following standard ELISA protocol. […] Plates were washed with PBS+0.05% Tween-20 following standard ELISA protocol, and Streptavidin-HRP (Southern Biotech, product number 7100-05) diluted to 1:10,000 in assay buffer was added to plates and incubated for 25-30 minutes at room temperature. Next, the plates were washed with PBS+0.05% Tween-20 following standard ELISA protocol, and then TMB substrate (BioFX Laboratories, catalog number TMBW-0100-01) was added to plates. Reactions were stopped after approximately 5 minutes by adding 0.18 M ortho-phosphoric acid to each well and absorbance was read at 450 nm.
(In general: An ELISA detects its analyte on a solid surface through an enzyme-linked reagent.)
As a reminder, the IC50 is the concentration that gives 50% inhibition. For the molecule B1, the “Bioactivity relative to TL1A-0002” value was 1 fold and the IC50 came out at 4.6 nM.

As to B2, the “Bioactivity relative to TL1A-0002” value worked out at 1.1 fold and the IC50 was found to be 5.1 nM.

B3: the “Bioactivity relative to TL1A-0002” value came to 1.3 fold and the IC50 was determined as 5.8 nM.

As for B4, the “Bioactivity relative to TL1A-0002” value is 1.1 fold and the IC50 worked out at 5 nM.

In the case of B5, the “Bioactivity relative to TL1A-0002” value was 1.2 fold and the concentration for half-maximal inhibition (IC50) worked out at 5.4 nM.

As for B6, the “Bioactivity relative to TL1A-0002” value was determined as 1 fold and the IC50 is 4.5 nM.

As for B7, the “Bioactivity relative to TL1A-0002” value was 0.9 fold and the IC50 was 3.9 nM.

In the case of B8, the “Bioactivity relative to TL1A-0002” value amounted to 1.2 fold and the IC50 was determined as 5.2 nM.

For B9, the “Bioactivity relative to TL1A-0002” value was 1 fold and the IC50 is 4.6 nM.

On to B10, for which the “Bioactivity relative to TL1A-0002” value was found to be 1.1 fold and the IC50 turned out to be 5 nM.

In the case of B11, the “Bioactivity relative to TL1A-0002” value is 0.9 fold and the IC50 was 4.1 nM.

Consider B12, for which the “Bioactivity relative to TL1A-0002” value was found to be 0.9 fold and the IC50 amounted to 4.1 nM.

Regarding B13, the “Bioactivity relative to TL1A-0002” value worked out at 0.9 fold and the half-inhibitory concentration (IC50) was 4.1 nM.

As for B14, the “Bioactivity relative to TL1A-0002” value amounted to 0.9 fold and the IC50 is 4 nM.
